Laboratory results published in patent publication US20250163127A1 (published 2025).

B1: PD-L1 303-ICOSL 2264-Fc + Fc (Fc fusion)
chain 1: FTVTVPKDLYVVEYGSNMTIECKFPVEKQLDLAALIVYWEMEGKDIIQFVHGEEDQKAQHSSYRQRARLLKDQLSLGNAALQITDVKLQDAGVYRCMISYGGGADYKRITVKVNAGSGGGSGGGGSGGGGSDTQEKEVRAMVGSDVELSCACPEGSRFDLNDVYVYWQTSESKTVVTYHIPQHSSLEYVDSRYRNRALMSPAGMLRGDFSLRLFNVTPQDEQKFHCLVLSRSLGFQEVLSVEVTLHVAANFSVGGGGSGSGGGGSEPKSSDKTHTCPPCPAPEAEGAPSVFLFPPKPKDTLMISRTPEVTCVVVDVSHEDPEVKFNWYVDGVEVHNAKTKPREEQYNSTYRVVSVLTVLHQDWLNGKEYKCKVSNKALPAPIEKTISKAKGQPREPQVYTLPPCREEMTKNQVSLWCLVKGFYPSDIAVEWESNGQPENNYKTTPPVLDSDGSFFLYSKLTVDKSRWQQGNVFSCSVMHEALHNHYTQKSLSLSPGK
chain 2: HMSSVSAQAAAEPKSSDKTHTCPPCPAPEAEGAPSVFLFPPKPKDTLMISRTPEVTCVVVDVSHEDPEVKFNWYVDGVEVHNAKTKPREEQYNSTYRVVSVLTVLHQDWLNGKEYKCKVSNKALPAPIEKTISKAKGQPREPQVCTLPPSREEMTKNQVSLSCAVKGFYPSDIAVEWESNGQPENNYKTTPPVLDSDGSFFLYSKLTVDKSRWQQGNVFSCSVMHEALHNHYTQKSLSLSPGK
B2: PD-L1 303-ICOSL 2264-COMP (other)
chain: FTVTVPKDLYVVEYGSNMTIECKFPVEKQLDLAALIVYWEMEGKDIIQFVHGEEDQKAQHSSYRQRARLLKDQLSLGNAALQITDVKLQDAGVYRCMISYGGGADYKRITVKVNAGGGGSGGGGSGGGGSDTQEKEVRAMVGSDVELSCACPEGSRFDLNDVYVYWQTSESKTVVTYHIPQHSSLEYVDSRYRNRALMSPAGMLRGDFSLRLFNVTPQDEQKFHCLVLSRSLGFQEVLSVEVTLHVAANFSVGGGGSGGGGSGGGGSDLGPQMLRELQETNAALQDVRELLRQQVREITFLKNTVMECDACGDYKDDDDKHHHHHH
B3: PD-L1 303-PD-L1 303-ICOSL 2264-ICOSL 2264 (other)
chain: FTVTVPKDLYVVEYGSNMTIECKFPVEKQLDLAALIVYWEMEGKDIIQFVHGEEDQKAQHSSYRQRARLLKDQLSLGNAALQITDVKLQDAGVYRCMISYGGGADYKRITVKVNAGGGGSGGGGSGGGGSFTVTVPKDLYVVEYGSNMTIECKFPVEKQLDLAALIVYWEMEGKDIIQFVHGEEDQKAQHSSYRQRARLLKDQLSLGNAALQITDVKLQDAGVYRCMISYGGGADYKRITVKVNAGGGGSGGGGSGGGGSDTQEKEVRAMVGSDVELSCACPEGSRFDLNDVYVYWQTSESKTVVTYHIPQHSSLEYVDSRYRNRALMSPAGMLRGDFSLRLFNVTPQDEQKFHCLVLSRSLGFQEVLSVEVTLHVAANFSVGSGGSGGGGSGGGGSDTQEKEVRAMVGSDVELSCACPEGSRFDLNDVYVYWQTSESKTVVTYHIPQHSSLEYVDSRYRNRALMSPAGMLRGDFSLRLFNVTPQDEQKFHCLVLSRSLGFQEVLSVEVTLHVAANFSVDYKDDDDKHHHHHH
B4: PD-L1 303-ICOSL 2264-Fc (Fc fusion)
chain: FTVTVPKDLYVVEYGSNMTIECKFPVEKQLDLAALIVYWEMEGKDIIQFVHGEEDQKAQHSSYRQRARLLKDQLSLGNAALQITDVKLQDAGVYRCMISYGGGADYKRITVKVNAGSGGSGGGGSGGGGSDTQEKEVRAMVGSDVELSCACPEGSRFDLNDVYVYWQTSESKTVVTYHIPQHSSLEYVDSRYRNRALMSPAGMLRGDFSLRLFNVTPQDEQKFHCLVLSRSLGFQEVLSVEVTLHVAANFSVGGGGSGSGGGGSEPKSSDKTHTCPPCPAPEAEGAPSVFLFPPKPKDTLMISRTPEVTCVVVDVSHEDPEVKFNWYVDGVEVHNAKTKPREEQYNSTYRVVSVLTVLHQDWLNGKEYKCKVSNKALPAPIEKTISKAKGQPREPQVYTLPPSRDELTKNQVSLTCLVKGFYPSDIAVEWESNGQPENNYKTTPPVLDSDGSFFLYSKLTVDKSRWQQGNVFSCSVMHEALHNHYTQKSLSLSPG
B5: PD-L1 303-ICOSL 2264 (SEQ ID NO 3496) (other)
chain: FTVTVPKDLYVVEYGSNMTIECKFPVEKQLDLAALIVYWEMEGKDIIQFVHGEEDQKAQHSSYRQRARLLKDQLSLGNAALQITDVKLQDAGVYRCMISYGGGADYKRITVKVNAGSGGSGGGGSGGGGSDTQEKEVRAMVGSDVELSCACPEGSRFDLNDVYVYWQTSESKTVVTYHIPQHSSLEYVDSRYRNRALMSPAGMLRGDFSLRLFNVTPQDEQKFHCLVLSRSLGFQEVLSVEVTLHVAANFSVDYKDDDDKHHHHHH
B6: PD-L1 303-ICOSL 2264-PD-L1 303 (other)
chain: FTVTVPKDLYVVEYGSNMTIECKFPVEKQLDLAALIVYWEMEGKDIIQFVHGEEDQKAQHSSYRQRARLLKDQLSLGNAALQITDVKLQDAGVYRCMISYGGGADYKRITVKVNAGGGGSGGGGSGGGGSDTQEKEVRAMVGSDVELSCACPEGSRFDLNDVYVYWQTSESKTVVTYHIPQHSSLEYVDSRYRNRALMSPAGMLRGDFSLRLFNVTPQDEQKFHCLVLSRSLGFQEVLSVEVTLHVAANFSVGGGGSGGGGSGGGGSFTVTVPKDLYVVEYGSNMTIECKFPVEKQLDLAALIVYWEMEGKDIIQFVHGEEDQKAQHSSYRQRARLLKDQLSLGNAALQITDVKLQDAGVYRCMISYGGGADYKRITVKVNADYKDDDDKHHHHHH
B7: PD-L1 303-ICOSL 2264-ICOSL 2264-PD-L1 303 (other)
chain: FTVTVPKDLYVVEYGSNMTIECKFPVEKQLDLAALIVYWEMEGKDIIQFVHGEEDQKAQHSSYRQRARLLKDQLSLGNAALQITDVKLQDAGVYRCMISYGGGADYKRITVKVNAGGGGSGGGGSGGGGSDTQEKEVRAMVGSDVELSCACPEGSRFDLNDVYVYWQTSESKTVVTYHIPQHSSLEYVDSRYRNRALMSPAGMLRGDFSLRLFNVTPQDEQKFHCLVLSRSLGFQEVLSVEVTLHVAANFSVGGGGSGGGGSGGGGSDTQEKEVRAMVGSDVELSCACPEGSRFDLNDVYVYWQTSESKTVVTYHIPQHSSLEYVDSRYRNRALMSPAGMLRGDFSLRLFNVTPQDEQKFHCLVLSRSLGFQEVLSVEVTLHVAANFSVGSGGSGGGGSGGGGSFTVTVPKDLYVVEYGSNMTIECKFPVEKQLDLAALIVYWEMEGKDIIQFVHGEEDQKAQHSSYRQRARLLKDQLSLGNAALQITDVKLQDAGVYRCMISYGGGADYKRITVKVNADYKDDDDKHHHHHH
B8: PD-L1 303-PD-L1 303-CD58 3650-CD58 3650 (other)
chain: FTVTVPKDLYVVEYGSNMTIECKFPVEKQLDLAALIVYWEMEGKDIIQFVHGEEDQKAQHSSYRQRARLLKDQLSLGNAALQITDVKLQDAGVYRCMISYGGGADYKRITVKVNAGGGGSGGGGSGGGGSFTVTVPKDLYVVEYGSNMTIECKFPVEKQLDLAALIVYWEMEGKDIIQFVHGEEDQKAQHSSYRQRARLLKDQLSLGNAALQITDVKLQDAGVYRCMISYGGGADYKRITVKVNAGGGGSGGGGSGGGGSSQQIYGVVYGNVTFHVPSNVPLKEVLWKKQKDKVAELENSEFRAFSSFKNRVYLDTVSGSLTIYNLTSSDEDEYEMESPNITDTMKFFLYVLESGSGGSGGGGSGGGGSSQQIYGVVYGNVTFHVPSNVPLKEVLWKKQKDKVAELENSEFRAFSSFKNRVYLDTVSGSLTIYNLTSSDEDEYEMESPNITDTMKFFLYVLESGSGGGGSDYKDDDDKHHHHHH
B9: PD-L1 303-CD58 3650-Fc (Fc fusion)
chain: FTVTVPKDLYVVEYGSNMTIECKFPVEKQLDLAALIVYWEMEGKDIIQFVHGEEDQKAQHSSYRQRARLLKDQLSLGNAALQITDVKLQDAGVYRCMISYGGGADYKRITVKVNAGGGGSGGGGSGGGGSSQQIYGVVYGNVTFHVPSNVPLKEVLWKKQKDKVAELENSEFRAFSSFKNRVYLDTVSGSLTIYNLTSSDEDEYEMESPNITDTMKFFLYVLESGSGGGGSEPKSSDKTHTCPPCPAPEAEGAPSVFLFPPKPKDTLMISRTPEVTCVVVDVSHEDPEVKFNWYVDGVEVHNAKTKPREEQYNSTYRVVSVLTVLHQDWLNGKEYKCKVSNKALPAPIEKTISKAKGQPREPQVYTLPPSRDELTKNQVSLTCLVKGFYPSDIAVEWESNGQPENNYKTTPPVLDSDGSFFLYSKLTVDKSRWQQGNVFSCSVMHEALHNHYTQKSLSLSPG
B10: CD58 3650-PD-L1 303-Fc (Fc fusion)
chain: SQQIYGVVYGNVTFHVPSNVPLKEVLWKKQKDKVAELENSEFRAFSSFKNRVYLDTVSGSLTIYNLTSSDEDEYEMESPNITDTMKFFLYVLESGGGGSGGGGSGGGGSFTVTVPKDLYVVEYGSNMTIECKFPVEKQLDLAALIVYWEMEGKDIIQFVHGEEDQKAQHSSYRQRARLLKDQLSLGNAALQITDVKLQDAGVYRCMISYGGGADYKRITVKVNAGSGGGGSEPKSSDKTHTCPPCPAPEAEGAPSVFLFPPKPKDTLMISRTPEVTCVVVDVSHEDPEVKFNWYVDGVEVHNAKTKPREEQYNSTYRVVSVLTVLHQDWLNGKEYKCKVSNKALPAPIEKTISKAKGQPREPQVYTLPPSRDELTKNQVSLTCLVKGFYPSDIAVEWESNGQPENNYKTTPPVLDSDGSFFLYSKLTVDKSRWQQGNVFSCSVMHEALHNHYTQKSLSLSPG
B11: CD58 3650-PD-L1 303-PD-L1 303-CD58 3650 (other)
chain: SQQIYGVVYGNVTFHVPSNVPLKEVLWKKQKDKVAELENSEFRAFSSFKNRVYLDTVSGSLTIYNLTSSDEDEYEMESPNITDTMKFFLYVLESGGGGSGGGGSGGGGSFTVTVPKDLYVVEYGSNMTIECKFPVEKQLDLAALIVYWEMEGKDIIQFVHGEEDQKAQHSSYRQRARLLKDQLSLGNAALQITDVKLQDAGVYRCMISYGGGADYKRITVKVNAGGGGSGGGGSGGGGSFTVTVPKDLYVVEYGSNMTIECKFPVEKQLDLAALIVYWEMEGKDIIQFVHGEEDQKAQHSSYRQRARLLKDQLSLGNAALQITDVKLQDAGVYRCMISYGGGADYKRITVKVNAGSGGSGGGGSGGGGSSQQIYGVVYGNVTFHVPSNVPLKEVLWKKQKDKVAELENSEFRAFSSFKNRVYLDTVSGSLTIYNLTSSDEDEYEMESPNITDTMKFFLYVLESGSGGGGSDYKDDDDKHHHHHH

molecular target: CD28 (human, UniProt P10747); assay: cell-based or functional assay

| % CD25 Hi FoxP3 + [% at 100 nM] | Binder |
| --- | --- |
| 29.8 | B1 |
| 21 | B2 |
| 4.28 | B3 |
| 6.6 | B4 |
| 21.7 | B5 |
| 23.2 | B6 |
| 0.89 | B7 |

molecular target: T1, PD-1 (human, UniProt Q15116); assay: cell-based or functional assay

| % CD25 Hi FoxP3 + [% at 100 nM] | Binder |
| --- | --- |
| 29.8 | B1 |
| 21 | B2 |
| 4.28 | B3 |
| 6.6 | B4 |
| 21.7 | B5 |
| 23.2 | B6 |
| 0.89 | B7 |

molecular target: T1, PD-1; assay: cell-based or functional assay; remark: another data set of the same source

| 100 nM IFN-gamma (pg/mL), SEB assay [pg/mL] | Binder |
| --- | --- |
| 8620 | B8 |
| 9820 | B9 |
| 5440 | B10 |

molecular target: CD2 (human, UniProt P06729); assay: cell-based or functional assay

| 100 nM IFN-gamma (pg/mL), SEB assay [pg/mL] | Binder |
| --- | --- |
| 8620 | B8 |
| 9820 | B9 |
| 5440 | B10 |

molecular target: CD2 (Homo sapiens (Human), UniProt P06729); assay: flow cytometry, CHO-CD2 cells

| EC50 [nM] | Binder |
| --- | --- |
| 14.4 | B11 |

molecular target: human PD-1 (human, UniProt Q15116); assay: flow cytometry, Jurkat/IL-2/PD-1 cells

| EC50 [nM] | Binder |
| --- | --- |
| 6.6 | B11 |
